Measured values from patent US20150044245A1, “PARTIAL MHC CONSTRUCTS AND METHODS OF USE” (Oregon Health & Science University, priority 2012, published 2015).

How the values were obtained:
[1] = target: CD74 (MHC class II invariant chain) of DR*1501-Tg mouse splenocytes and monocytes (mouse) (UniProt P04441)
[2] = target: low affinity binding site for RTL on DR*1501-Tg mouse splenocytes; assay: competition of unlabeled construct with labeled RTL1000 (280 nM) on DR*1501-Tg splenocytes; low affinity site
[3] = target: high affinity binding site for RTL on DR*1501-Tg mouse splenocytes; assay: competition of unlabeled construct with labeled RTL1000 (280 nM) on DR*1501-Tg splenocytes; high affinity site
[4] = target: high affinity binding site for RTL on DR*1501-Tg mouse splenocytes; assay: saturation binding to 2 million spleen cells on ice; urea lysis, SDS-PAGE, fluorescence densitometry; two-site fit
[5] = target: low affinity binding site for RTL on DR*1501-Tg mouse splenocytes; assay: as above
[6] = target: low affinity binding site for RTL on MHC class II deficient mouse splenocytes; assay: competition of unlabeled construct with labeled RTL1000 on MHC class II deficient mouse splenocytes; low affinity site
[7] = target: four-domain MHC class II from DR*1501-Tg mice (human transgene expressed in mouse); assay: direct saturation binding of FITC-labeled construct to MHC class II immuno-adsorbed on Protein L/L243 beads; one-site fit
Histone complex (Sigma) = assay: SPR (Biacore 3000), histone complex amine coupled to CM5 chip, RTL1000 injected; 1:1 Langmuir model with drifting baseline
[8] = target: RTL binding sites on CD11b+ monocytes of DR*1501-Tg mice; assay: flow cytometry; naive CD11b+ monocytes incubated with 1 µg RTL1000 FITC (1 hour at 37 °C by the text); upper row of panels
[9] = target: RTL binding sites on CD11b+ monocytes of DR*1501-Tg mice; assay: flow cytometry; naive CD11b+ monocytes incubated with 5 µg RTL1000 FITC (1 hour at 37 °C by the text); upper row of panels
[10] = target: low affinity binding site for RTL on MHC class II deficient mouse splenocytes; assay: competition on whole cells of MHC class II knockout mice: labeled RTL1000 against increasing unlabeled RTL1000; SDS-PAGE fluorescence densitometry
[11] = target: RTL binding sites on CD11c+ cells of DR*1501-Tg mouse blood; assay: flow cytometry; blood of naive DR*1501-Tg mice 15 minutes after injection of 500 µg FITC-labeled RTL; monocyte gate, live cells; No RTL (pre-injection) panel 0.12%
[12] = target: RTL binding sites on CD19+ cells of DR*1501-Tg mouse blood; assay: as above
[13] = target: RTL binding sites on CD3+ cells of DR*1501-Tg mouse blood; assay: as above
[14] = target: RTL binding sites on CD11b+ monocytes of DR*1501-Tg mice; assay: flow cytometry; blood of naive DR*1501-Tg mice 15 minutes after injection of 500 µg FITC-labeled RTL; monocyte gate, live cells; No RTL (pre-injection) panel 0.14%
[15] = target: RTL binding sites on CD11b+ monocytes of DR*1501-Tg mice; assay: flow cytometry; blood of naive DR*1501-Tg mice 15 minutes after injection of 500 µg FITC-labeled RTL; LYMPHOCYTE gate, live cells; No RTL (pre-injection) panel 0.00%
[16] = target: RTL binding sites on CD11c+ cells of DR*1501-Tg mouse blood; assay: flow cytometry; blood of naive DR*1501-Tg mice 15 minutes after injection of 500 µg FITC-labeled RTL; lymphocyte gate, live cells; No RTL (pre-injection) panel 0.00%
[17] = target: RTL binding sites on CD19+ cells of DR*1501-Tg mouse blood; assay: as above
[18] = target: RTL binding sites on CD3+ cells of DR*1501-Tg mouse blood; assay: flow cytometry; blood of naive DR*1501-Tg mice 15 minutes after injection of 500 µg FITC-labeled RTL; lymphocyte gate, live cells; No RTL (pre-injection) panel 0.05%
[19] = target: RTL binding sites on CD19+ cells of DR*1501-Tg mouse blood; assay: flow cytometry; blood of naive DR*1501-Tg mice incubated in vitro with FITC-labeled RTL (legend: 500 µg), 90 minutes post-treatment; monocyte gate; No RTL (pre-treatment) panel 0.00%
[20] = target: RTL binding sites on CD3+ cells of DR*1501-Tg mouse blood; assay: as above
[21] = target: RTL binding sites on CD11b+ monocytes of DR*1501-Tg mice; assay: flow cytometry; blood of naive DR*1501-Tg mice incubated in vitro with FITC-labeled RTL (legend: 500 µg), 90 minutes post-treatment; monocyte gate; No RTL (pre-treatment) panel 0.07%
[22] = target: RTL binding sites on CD11c+ cells of DR*1501-Tg mouse blood; assay: flow cytometry; blood of naive DR*1501-Tg mice incubated in vitro with FITC-labeled RTL (legend: 500 µg), 90 minutes post-treatment; monocyte gate; No RTL (pre-treatment) panel 0.09%
[23] = target: RTL binding sites on CD11b+ monocytes of DR*1501-Tg mice; assay: flow cytometry; blood of naive DR*1501-Tg mice incubated in vitro with FITC-labeled RTL (legend: 500 µg), 90 minutes post-treatment; LYMPHOCYTE gate; No RTL (pre-treatment) panel 0.00%
[24] = target: RTL binding sites on CD11c+ cells of DR*1501-Tg mouse blood; assay: flow cytometry; blood of naive DR*1501-Tg mice incubated in vitro with FITC-labeled RTL (legend: 500 µg), 90 minutes post-treatment; lymphocyte gate; No RTL (pre-treatment) panel 0.00%
[25] = target: RTL binding sites on CD19+ cells of DR*1501-Tg mouse blood; assay: as above
[26] = target: RTL binding sites on CD3+ cells of DR*1501-Tg mouse blood; assay: as above
[27] = target: low affinity binding site for RTL on MHC class II deficient mouse splenocytes; assay: competition on whole cells of MHC class II knockout mice: labeled RTL1000 against increasing unlabeled RTL340; SDS-PAGE fluorescence densitometry
[28] = test system: mMOG-35-55-induced EAE in DR*1501-Tg mice
[29] = target: T1, CD74 (MHC class II invariant chain) of DR*1501-Tg mouse splenocytes and monocytes (mouse, UniProt P04441-2 1-215, limits assumed, surface biotinylated in the immunoprecipitation experiments); assay: competition of unlabeled DR-α1 with FITC-labeled RTL1000 (320 nM) for immunoprecipitated CD74; gel densitometry; one-site competition fit
T1 construct: Native protein from mouse cells; also called p31
T1 sequence (looked up): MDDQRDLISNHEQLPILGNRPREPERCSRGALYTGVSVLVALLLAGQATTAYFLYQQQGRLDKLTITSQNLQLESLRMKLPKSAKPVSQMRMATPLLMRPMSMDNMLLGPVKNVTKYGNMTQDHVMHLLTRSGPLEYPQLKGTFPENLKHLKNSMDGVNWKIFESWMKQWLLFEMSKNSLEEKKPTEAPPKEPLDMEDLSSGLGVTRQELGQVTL

[30] = target: T1, CD74 (MHC class II invariant chain) of …; assay: direct saturation binding of FITC-labeled construct to CD74 immuno-adsorbed on Protein L/ln-1 beads; SDS-PAGE densitometry; one-site fit
[31] = free peptide 10 μg i.v. daily for 5 days from onset

With RTL1000 (pDR2/hMOG-35-55) (peptide-MHC) the CD74 expression on naive CD11b+ monocytes after 1 µg RTL1000: % of cells in the upper right quadrant (CD11b APC+, CD74 PE+) [1] was 42%, the CD74 expression on naive CD11b+ monocytes after 5 µg RTL1000: % of cells in the upper right quadrant (CD11b APC+, CD74 PE+) [1] was 9.84% and the CD74 expression on naive CD11b+ monocytes after 10 µg RTL1000: % of cells in the upper right quadrant (CD11b APC+, CD74 PE+) [1] was 7.32%. For the same molecule, the EC50 [2] was 11 nM, the EC50 [3] was 4000 nM and the Kd [4] was 2.65 nM. For the same molecule, the Kd [5] was 131 nM, the EC50 [6] was 71.1 nM and the Kd [7] was 1.14 nM. For the same molecule, the Kd (Histone complex (Sigma)) was 575 nM, the % of cells in the upper right quadrant (CD11b APC+, RTL1000 FITC+) [8] was 55.8% and the % of cells in the upper right quadrant (CD11b APC+, RTL1000 FITC+) [9] was 69.5%. For the same molecule, the IC50 (read off the curve) [10] was 40 nM, the % of cells in the upper right quadrant (CD11c APC+, RTL FITC+) [11] was 9.26% and the % of cells in the upper right quadrant (CD19 APC+, RTL FITC+) [12] was 3.93%. It also gave a % of cells in the upper right quadrant (CD3 PE+, RTL FITC+) [13] of 0.36%, a % of cells in the upper right quadrant (CD11b PE+, RTL FITC+) [14] of 44.4% and a % of cells in the upper right quadrant (CD11b PE+, RTL FITC+) [15] of 9.23%. The % of cells in the upper right quadrant (CD11c APC+, RTL FITC+) [16] was 4.63%, the % of cells in the upper right quadrant (CD19 APC+, RTL FITC+) [17] was 0.82% and the % of cells in the upper right quadrant (CD3 PE+, RTL FITC+) [18] was 0.16%. For the same molecule, the % of cells in the upper right quadrant (CD19 APC+, RTL FITC+) [19] was 5.82%, the % of cells in the upper right quadrant (CD3 PE+, RTL FITC+) [20] was 4.01% and the % of cells in the upper right quadrant (CD11b PE+, RTL FITC+) [21] was 38.6%. It also gave a % of cells in the upper right quadrant (CD11c APC+, RTL FITC+) [22] of 6.77%, a % of cells in the upper right quadrant (CD11b PE+, RTL FITC+) [23] of 3.96% and a % of cells in the upper right quadrant (CD11c APC+, RTL FITC+) [24] of 4.4%. The % of cells in the upper right quadrant (CD19 APC+, RTL FITC+) [25] was 1.26% and the % of cells in the upper right quadrant (CD3 PE+, RTL FITC+) [26] was 1.49%.

RTL340 (pDR2/MBP-85-99) (peptide-MHC) was tested, and the EC50 [2] was 140 nM, the EC50 [6] was 43.2 nM and the IC50 (read off the curve) [27] was 60 nM.

For “mMOG-35-55 peptide: free mouse MOG-35-55 peptide, MEVGWYRSPFSRVVHLYRNGK (SEQ ID NO: 50) (Synthetic peptide - mouse MOG 35-55) [reference compound]”, the CDI [28, 31] was 31.5 ± 9.8, the Incidence [28, 31] was 5/5 and the Mortality [28, 31] was 0. For the same molecule, the Onset [28, 31] was 11.2 ± 1.2, the Peak [28, 31] was 3.0 ± 0.9 and the “effect on EAE (in words)” value ([28]; mMOG-35-55-induced EAE) was “did not produce significant inhibition of EAE”.

B1: DR-α1 domain alone (no DR2-β1 domain or peptide) (other, UniProt P01903 26-109, looked up)
chain: IKEEHVIIQAEFYLNPDQSGEFMFDFDGDEIFHVDMAKKETVWRLEEFGRFASFEAQGALANIAVDKANLEIMTKRSNYTPITN
modifications: labeled with FITC in the direct binding assays
notes: domain: α1
With B1 the EC50 [29] was 447 nM and the Kd [30] was 2.95 nM.
